The values that follow come from paper doi:10.1101/2020.11.15.382044.

Test [1] deals with SARS-CoV-2 D614G mutant S trimer (design Spike_ΔCter_ΔFurin_2P_T4_His with D614G) (SARS-CoV-2 | bacteriophage T4) (UniProt P0DTC2). In words: negative-stain electron microscopy.
For test [2], the target named is SARS-CoV-2 Spike trimer (Wuhan), design Spike_ΔCter_ΔFurin_2P_T4_His (SARS-CoV-2 | bacteriophage T4) (UniProt P0DTC2). In words: SEC. (Size exclusion chromatography separates by hydrodynamic size, large species first.)
For test [3] the target is unchanged. Kind of test: negative-stain electron microscopy.

The term stoichiometry N denotes a count of units in the complex or per binding partner. Regarding “SARS-CoV-2 D614G mutant S trimer (design Spike_ΔCter_ΔFurin_2P_T4_His with D614G) (from UniProt P0DTC2 14-1213) (complex)”, the stoichiometry N in test [1] stood at 3.

With “SARS-CoV-2 Spike trimer (Wuhan), design Spike_ΔCter_ΔFurin_2P_T4_His (from UniProt P0DTC2 14-1213) (complex)”, the stoichiometry N in test [2] and in test [3] was 3 each time.
